Publication PMC10208891

How the values were obtained:
[1] = anti-Flag immunofluorescence with DAPI; details: glycan lost; control: SFB-YTHDF1-WT, untreated
[2] = nuclear and cytoplasmic fractionation, immunoblot; details: glycan lost; control: SFB-YTHDF1-WT

B1: YTH domain family 1 (YTHDF1): AFA (protein)
parent chain: MSATSVDTQRTKGQDNKVQNGSLHQKDTVHDNDFEPYLTGQSNQSNSYPSMSDPYLSSYYPPSIGFPYSLNEAPWSTAGDPPIPYLTTYGQLSNGDHHFMHDAVFGQPGGLGNNIYQHRFNFFPENPAFSAWGTSGSQGQQTQSSAYGSSYTYPPSSLGGTVVDGQPGFHSDTLSKAPGMNSLEQGMVGLKIGDVSSSAVKTVGSVVSSVALTGVLSGNGGTNVNMPVSKPTSWAAIASKPAKPQPKMKTKSGPVMGGGLPPPPIKHNMDIGTWDNKGPVPKAPVPQQAPSPQAAPQPQQVAQPLPAQPPALAQPQYQSPQQPPQTRWVAPRNRNAAFGQSGGAGSDSNSPGNVQPNSAPSVESHPVLEKLKAAHSYNPKEFEWNLKSGRVFIIKSYSEDDIHRSIKYSIWCSTEHGNKRLDSAFRCMSSKGPVYLLFSVNGSGHFCGVAEMKSPVDYGTSAGVWSQDKWKGKFDVQWIFVKDVPNNQLRHIRLENNDNKPVTNSRDTQEVPLEKAKQVLKIISSYKHTTSIFDDFAHYEKRQEEEEVVRKERQSRNKQ
[1]
  localisation_or_trafficking: changes
[2]
  localisation_or_trafficking: changes
